From article PMC4847949 (Journal of molecular biology, 2016)

T1: MiniFLASH (human, UniProt Q9UKL3 1-138; Q9UKL3 1931-1982)
T1 sequence (looked up): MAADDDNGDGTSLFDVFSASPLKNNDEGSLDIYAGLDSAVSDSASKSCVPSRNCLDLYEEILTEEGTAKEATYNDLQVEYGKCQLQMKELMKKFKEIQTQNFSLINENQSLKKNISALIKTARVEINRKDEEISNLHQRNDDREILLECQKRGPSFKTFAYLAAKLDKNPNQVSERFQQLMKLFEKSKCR

B1: Lsm 169N (MBP fusion) (domain or fragment, human, UniProt P83369 1-169, looked up)
chain: MEERERGARSAGAGSPARPPSPRLDVSSDSFDPLLALYAPRLPPIPYPNAPCFNNVAEYESFLRTGVRGGGRGRGRARGAAAGSGVPAAPGPSGRTRRRPDAPAPDPERIQRLRRLMVAKEEGDGAAGAGRRGPGRSRKAPRNVLTRMPLHEGSPLGELHRCIREGVKV

Key:
[1] = target: T1, MiniFLASH; assay: HDX-MS
[2] = target: B1; assay: HDX-MS

Binder	binding result [1]	binding result [2]
B1	binds	–
FLASH 138N (domain or fragment, human, UniProt Q9UKL3 29-138, looked up) SLDIYAGLDSAVSDSASKSCVPSRNCLDLYEEILTEEGTAKEATYNDLQVEYGKAQLQMKELMKKFKEIQTQNFSLINENQSLKKNISALIKTARVEINRKDEEISNLHQ	–	binds
FLASH 159N (domain or fragment, human, UniProt Q9UKL3 1-159, looked up) MAADDDNGDGTSLFDVFSASPLKNNDEGSLDIYAGLDSAVSDSASKSCVPSRNCLDLYEEILTEEGTAKEATYNDLQVEYGKAQLQMKELMKKFKEIQTQNFSLINENQSLKKNISALIKTARVEINRKDEEISNLHQRLSEFPHFRNNHKTARTFDTV	–	binds
